From article PMC3391682, “Structure of the Glycosyltransferase EryCIII in Complex with its Activating P450 Homologue EryCII” (Journal of Molecular Biology, 2012)

Biological target: T1, glycosyltransferase EryCIII (UniProt A4F7P3 1-421)
T1 construct: EryCIII, glycosyltransferase that attaches TDP-D-desosamine to 3-alpha-mycarosylerythronolide B in erythromycin D biosynthesis; printed mass 48.1 kDa (47,961 Da measured, loss of the N-terminal methionine); Se-Met-labelled protein was used for phasing; also called GT EryCIII; source: E. coli BL21 (DE3) codon plus RP, co-expressed with the S. coelicolor chaperonins GroEL1, GroES and GroEL2, …
T1 sequence (looked up): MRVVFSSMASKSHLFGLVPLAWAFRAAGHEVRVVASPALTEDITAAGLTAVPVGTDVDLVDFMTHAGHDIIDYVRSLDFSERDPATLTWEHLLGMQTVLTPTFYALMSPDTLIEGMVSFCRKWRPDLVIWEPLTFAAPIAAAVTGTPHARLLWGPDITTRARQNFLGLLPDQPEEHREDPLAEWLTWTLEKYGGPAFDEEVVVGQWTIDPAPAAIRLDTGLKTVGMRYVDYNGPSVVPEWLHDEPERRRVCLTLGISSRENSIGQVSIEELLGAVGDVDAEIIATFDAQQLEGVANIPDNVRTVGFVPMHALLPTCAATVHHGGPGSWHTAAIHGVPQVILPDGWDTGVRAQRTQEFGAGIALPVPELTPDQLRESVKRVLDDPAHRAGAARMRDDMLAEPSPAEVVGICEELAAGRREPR
Assay: AUC; sedimentation velocity of the co-expressed, co-purified EryCIII·EryCII complex in 2 mM DTT, 293 K, 50,000 r.p.m.; c(S) and c(M) analysis, taken together with band intensities on a denaturing polyacrylamide gel
Conditions: both partners purified

B1: EryCII, activating P450 homologue (auxiliary protein) of EryCIII (natural protein)
chain: MTTTDRAGLGRQLQMIRGLHWGYGSNGDPYPMLLCGHDDDPQRRYRSMRESGVRRSRTETWVVADHATARQVLDDPAFTRATGRTPEWMRAAGAPPAEWAQPFRDVHAASWEGEVPDVGELAESFAGLLPGAGARLDLVGDFAWQVPVQGMTAVLGAAGVLRGAAWDARVSLDAQLSPQQLAVTEAAVAALPADPALRALFAGAEMTANTVVDAVLAVSAEPGLAERIADDPAAAQRTVAEVLRLHPALHLERRTATAEVRLGEHVIGEGEEVVVVVAAANRDPEVFAEPDRLDVDRPDADRALSAHRGHPGRLEELVTALATAALRAAAKALPGLTPSGPVVRRRRSPVLRGTNRCPVEL
notes: printed mass 40.7 kDa; also called helper protein
  stoichiometry N: 1
